The binders below were run against EGFR (UniProt P00533 P00533:25-645) (assay: SPR; PBS, 5 mM MgCl2, 20 C). Conditions: tags: R&D Systems; amine-coupled to sensor chip; label: 5' biotin.
Method: Aptamer binding to EGFR recombinant protein was assessed by surface plasmon resonance (SPR). SPR experiments were performed on a 404pi system (BiOptix, Boulder, Colo.), at a constant temperature of 20° C., 20 μL min⁻¹ flow rate, using running buffer (degassed PBS, 5 mM MgCl₂, 0.05% Tween) for all coupling and capture steps. 0.1 M N-hydroxysuccinimide (NHS) in MOPS, 0.4 M 1-ethyl-3-(3-dimethylaminopropyl) carbodiimide hydrochloride (EDC), 1 M ethanolamine hydrochloride (pH 8.5) and 10 mM sodium acetate pH 4.5, were from Sigma (St. Louis, Mo.). EGFR was obtained from R&D Systems (Minneapolis, Minn.). Three 96 well plates of oligonucleotides were synthesized by solid phase phosphoramidite chemistry by Boston Open Labs (Cambridge, Mass.) with a 5′ biotin.
The surface in all four channels of a CDM150 sensor chip (BiOptix) was activated by injecting 140 μL of a 1:1 mixture (v/v) of EDC and NHS. Then 350 μL of 285 nM EGFR in 10 mM sodium acetate pH 4.5 was injected in all 4 channels and covalently bound to a density of ˜8000 Response Units (RU) over 1050 sec. Finally, the surface was blocked by an injection of 200 μL 1 M ethanolamine hydrochloride.

Binding result, binds:
GGACGGAUUUAAUCGCCGUAGAAAAGCAUGUCAAAGCCGGAACCGUCC (ssRNA, 2'-F all C and U; 2'-OMe A7) [ALT102064.01]
GGACGGAUUUAAUCGCCGUAGAAAAGCAUGUCAAAGCCGGAACCGUCC (ssRNA, 2'-F all C and U and A25) [ALT102121.01]
GGACGGAUUUAAUCGCCGUAGAAAAGCAUGUCAAAGCCGGAACCGUCC (ssRNA, 2'-F all C and U and G2) [ALT102107.01]
GGACGGAUUUAAUCGCCGUAGAAAAGCAUGUCAAAGCCGGAACCGUCC (ssRNA, 2'-F all C and U except 2'-OMe C38) [ALT102095.01]
GGACGGAUUUAAUCGCCGUAGAAAAGCAUGUCAAAGCCGGAACCGUCC (ssRNA, 2'-F all C and U and G15) [ALT102114.01]
GGACGGAUUUAAUCGCCGUAGAAAAGCAUGUCAAAGCCGGAACCGUCC (ssRNA, 2'-F all C and U and G21) [ALT102117.01]
GGACGGAUUUAAUCGCCGUAGAAAAGCAUGUCAAAGCCGGAACCGUCC (ssRNA, 2'-F all C and U except 2'-OMe U8) [ALT102065.01]
GGACGGAUUUAAUCGCCGUAGAAAAGCAUGUCAAAGCCGGAACCGUCC (ssRNA, 2'-F all C and U except 2'-OMe U19) [ALT102076.01]
GGACGGAUUUAAUCGCCGUAGAAAAGCAUGUCAAAGCCGGAACCGUCC (ssRNA, 2'-F all C and U; 2'-OMe G39) [ALT102096.01]
GGACGGAUUUAAUCGCCGUAGAAAAGCAUGUCAAAGCCGGAACCGUCC (ssRNA, 2'-F all C and U except 2'-OMe C47) [ALT102104.01]
GGACGGAUUUAAUCGCCGUAGAAAAGCAUGUCAAAGCCGGAACCGUCC (ssRNA, 2'-F all C and U and A24) [ALT102120.01]
GGACGGAUUUAAUCGCCGUAGAAAAGCAUGUCAAAGCCGGAACCGUCC (ssRNA, 2'-F all C and U and A7) [ALT102111.01]
GGACGGAUUUAAUCGCCGUAGAAAAGCAUGUCAAAGCCGGAACCGUCC (ssRNA, 2'-F all C and U; 2'-OMe G18) [ALT102075.01]
GGACGGAUUUAAUCGCCGUAGAAAAGCAUGUCAAAGCCGGAACCGUCC (ssRNA, 2'-F all C and U; 2'-OMe G40) [ALT102097.01]
GGACGGAUUUAAUCGCCGUAGAAAAGCAUGUCAAAGCCGGAACCGUCC (ssRNA, 2'-F all C and U except 2'-OMe C37) [ALT102094.01]
GGACGGAUUUAAUCGCCGUAGAAAAGCAUGUCAAAGCCGGAACCGUCC (ssRNA, 2'-F all C and U; 2'-OMe G21) [ALT102078.01]
GGACGGAUUUAAUCGCCGUAGAAAAGCAUGUCAAAGCCGGAACCGUCC (ssRNA, 2'-F all C and U; 2'-OMe A41) [ALT102098.01]
GGACGGAUUUAAUCGCCGUAGAAAAGCAUGUCAAAGCCGGAACCGUCC (ssRNA, 2'-F all C and U; 2'-OMe A28) [ALT102085.01]
GGACGGAUUUAAUCGCCGUAGAAAAGCAUGUCAAAGCCGGAACCGUCC (ssRNA, 2'-F all C and U and A33) [ALT102125.01]
GGACGGAUUUAAUCGCCGUAGAAAAGCAUGUCAAAGCCGGAACCGUCC (ssRNA, 2'-F all C and U and G5) [ALT102109.01]
GGACGGAUUUAAUCGCCGUAGAAAAGCAUGUCAAAGCCGGAACCGUCC (ssRNA, 2'-F all C and U; 2'-OMe G5) [ALT102062.01]
GGACGGAUUUAAUCGCCGUAGAAAAGCAUGUCAAAGCCGGAACCGUCC (ssRNA, 2'-F all C and U; 2'-OMe G36) [ALT102093.01]
GGACGGAUUUAAUCGCCGUAGAAAAGCAUGUCAAAGCCGGAACCGUCC (ssRNA, 2'-F all C and U except 2'-OMe C4) [ALT102061.01]
GGACGGAUUUAAUCGCCGUAGAAAAGCAUGUCAAAGCCGGAACCGUCC (ssRNA, 2'-F all C and U; 2'-OMe G1) [ALT102058.01]
GGACGGAUUUAAUCGCCGUAGAAAAGCAUGUCAAAGCCGGAACCGUCC (ssRNA, 2'-F all C and U; 2'-OMe G15) [ALT102072.01]
GGACGGAUUUAAUCGCCGUAGAAAAGCAUGUCAAAGCCGGAACCGUCC (ssRNA, 2'-F all C and U and A20) [ALT102116.01]
GGACGGAUUUAAUCGCCGUAGAAAAGCAUGUCAAAGCCGGAACCGUCC (ssRNA, 2'-F all C and U except 2'-OMe C48) [ALT102105.01]
GGACGGAUUUAAUCGCCGUAGAAAAGCAUGUCAAAGCCGGAACCGUCC (ssRNA, 2'-F all C and U except 2'-OMe C27) [ALT102084.01]
GGACGGAUUUAAUCGCCGUAGAAAAGCAUGUCAAAGCCGGAACCGUCC (ssRNA, 2'-F all C and U and A22) [ALT102118.01]
GGACGGAUUUAAUCGCCGUAGAAAAGCAUGUCAAAGCCGGAACCGUCC (ssRNA, 2'-F all C and U and G6) [ALT102110.01]
GGACGGAUUUAAUCGCCGUAGAAAAGCAUGUCAAAGCCGGAACCGUCC (ssRNA, 2'-F all C and U except 2'-OMe U9) [ALT102066.01]
GGACGGAUUUAAUCGCCGUAGAAAAGCAUGUCAAAGCCGGAACCGUCC (ssRNA, 2'-F all C and U and A3) [ALT102108.01]
GGACGGAUUUAAUCGCCGUAGAAAAGCAUGUCAAAGCCGGAACCGUCC (ssRNA, 2'-F all C and U; 2'-OMe A3) [ALT102060.01]
GGACGGAUUUAAUCGCCGUAGAAAAGCAUGUCAAAGCCGGAACCGUCC (ssRNA, 2'-F all C and U; 2'-OMe G45) [ALT102102.01]
GGACGGAUUUAAUCGCCGUAGAAAAGCAUGUCAAAGCCGGAACCGUCC (ssRNA, 2'-F all C and U and A23) [ALT102119.01]
GGACGGAUUUAAUCGCCGUAGAAAAGCAUGUCAAAGCCGGAACCGUCC (ssRNA, 2'-F all C and U; 2'-OMe G30) [ALT102087.01]
GGACGGAUUUAAUCGCCGUAGAAAAGCAUGUCAAAGCCGGAACCGUCC (ssRNA, 2'-F all C and U; 2'-OMe G26) [ALT102083.01]
GGACGGAUUUAAUCGCCGUAGAAAAGCAUGUCAAAGCCGGAACCGUCC (ssRNA, 2'-F all C and U and G26) [ALT102122.01]
GGACGGAUUUAAUCGCCGUAGAAAAGCAUGUCAAAGCCGGAACCGUCC (ssRNA, 2'-F all C and U except 2'-OMe U46) [ALT102103.01]
GGACGGAUUUAAUCGCCGUAGAAAAGCAUGUCAAAGCCGGAACCGUCC (ssRNA, 2'-F all C and U; 2'-OMe A33) [ALT102090.01]
GGACGGAUUUAAUCGCCGUAGAAAAGCAUGUCAAAGCCGGAACCGUCC (ssRNA, 2'-F all C and U; 2'-OMe A20) [ALT102077.01]
GGACGGAUUUAAUCGCCGUAGAAAAGCAUGUCAAAGCCGGAACCGUCC (ssRNA, 2'-F all C and U except 2'-OMe C16) [ALT102073.01]
GGACGGAUUUAAUCGCCGUAGAAAAGCAUGUCAAAGCCGGAACCGUCC (ssRNA, 2'-F all C and U; 2'-OMe G2) [ALT102059.01]
GGACGGAUUUAAUCGCCGUAGAAAAGCAUGUCAAAGCCGGAACCGUCC (ssRNA, 2'-F all C and U; 2'-OMe G6) [ALT102063.01]
GGACGGAUUUAAUCGCCGUAGAAAAGCAUGUCAAAGCCGGAACCGUCC (ssRNA, 2'-F all C and U; 2'-OMe A24) [ALT102081.01]
GGACGGAUUUAAUCGCCGUAGAAAAGCAUGUCAAAGCCGGAACCGUCC (ssRNA, 2'-F all C and U and A28) [ALT102123.01]
GGACGGAUUUAAUCGCCGUAGAAAAGCAUGUCAAAGCCGGAACCGUCC (ssRNA, 2'-F all C and U; 2'-OMe A23) [ALT102080.01]
GGACGGAUUUAAUCGCCGUAGAAAAGCAUGUCAAAGCCGGAACCGUCC (ssRNA, 2'-F all C and U and A11) [ALT102112.01]
